Where a chain is given by its changes, count along the chain named.
T1: recombinant human MCP-2 (human, UniProt P80075 24-99)
T1 construct: also called rhMCP-2
T1 sequence (looked up): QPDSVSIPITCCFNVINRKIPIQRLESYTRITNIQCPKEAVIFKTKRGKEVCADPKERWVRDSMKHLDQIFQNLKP

T2: human RANTES (human, UniProt P13501 24-91)
T2 construct: also called hRANTES
T2 sequence (looked up): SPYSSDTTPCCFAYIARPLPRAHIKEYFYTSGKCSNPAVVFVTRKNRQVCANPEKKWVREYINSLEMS

T3: human GRO/MGSA (human, UniProt P09341 35-107)
T3 construct: also called hGRO/MGSA; GRO-alpha
T3 sequence (looked up): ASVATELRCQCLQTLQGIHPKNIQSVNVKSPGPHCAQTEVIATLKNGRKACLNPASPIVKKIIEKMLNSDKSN

T4: human MIP-1-alpha (human, UniProt P10147 24-92, limits assumed)
T4 construct: also called hMIP-1-alpha
T4 sequence (looked up): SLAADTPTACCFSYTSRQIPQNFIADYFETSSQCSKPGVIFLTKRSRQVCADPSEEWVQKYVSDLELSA

B1: anti-MCP-1 mAb 1.6.1 (antibody, V domains shown)
VH: QVQLVQSGAEVKKPGASVKVSCKVSGYTLTELSMHWVRQAPGKGLEWMGGFDPEDGETIYAQKFQGRVTMTEDTSTDTAYMELSSLRSEDTAVYYCATWYSGIYLAFDIWGQGTMVTVSS
VL: EIVLTQSPDFQSVTPKEKVTITCRASQSIGSSLHWYQQKPDQSPKLLIKYASQSFSGVPSRFSGSGSGTDFTLTINSLEAEDAATYYCHQSSSLPHTFGGGTKVEIKR
B2: anti-MCP-1 mAb 1.1.1 (antibody, human IgG2, kappa, V domains shown)
VH: QVQLVQSGAEVKKPGASVKVSCKVSGYTLTELSMHWVRQAPGNGLEWMGGFDPEDGETIYAQRFQGRVVMTEDPSTDTAYMELSSLRSEDTAVYYCATNEFWSGYFDYWGQGTLVTVSS
VL: DIVMTQSPDSLAMSLGERATINCKSSQSVLYSSNNKNYLVWYQQKPGQPPKLLIYWASIRESGVPDRFSSSGSETDFTLTISSLQAEDVAVYYCQQYFSSPWTFGQGTKVEIKR
B3: anti-MCP-1 mAb 1.13.1 (antibody, V domains shown)
VH: B2 VH with Y27H, N43K, G56D, R63K, G66D, V69T, P74T, E100D, Y108C
VL: B2 VL with M4L, M13V, S14C, S33P, Y38F, K45R, I59T, S70G, E74G, F98Y
B4: anti-MCP-1 mAb 1.8.1 (antibody, V domains shown)
VH: B2 VH with Y27H, T28I, L29F, M34I, N43K, R63K, V69T, P74T, A79V, E100D
VL: DIVMTQSPGSLAVSLGERATINCKSSQSILFRSNNKNYLTWYQQKPGQPPKLLIYWASIRESGVPDRFSGSGSGSNFTLTITSLQAEDVAIYYCQQYYSSPWTFGQGTKVEIKR
B5: anti-MCP-1 mAb 1.5.1 (antibody, V domains shown)
VH: B2 VH with N43K, G56D, R63K, V69T, P74T, Y95F, E100D, Y108C, G110D
VL: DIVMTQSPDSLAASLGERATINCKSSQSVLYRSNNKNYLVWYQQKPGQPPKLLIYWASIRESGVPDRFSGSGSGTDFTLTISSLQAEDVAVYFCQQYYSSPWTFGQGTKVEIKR
B6: anti-MCP-1 mAb 1.11.1 (antibody, V domains shown)
VH: B2 VH with L4V, K13N, Y27S, N43K, R63K, V69T, P74T, A79V, E100D
VL: B2 VL with M13V, N22T, S28T, P46S, Y55H, S70G, E74G, F98Y
B7: anti-MCP-1 mAb 1.12.1 (antibody, V domains shown)
VH: B2 VH with N43K, R63K, V69T, P74T, E100D, F106Y, D107N
VL: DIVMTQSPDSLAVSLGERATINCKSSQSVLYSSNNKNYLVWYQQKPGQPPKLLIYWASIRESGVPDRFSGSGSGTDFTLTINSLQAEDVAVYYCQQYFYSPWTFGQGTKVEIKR
B8: anti-MCP-1 mAb 1.10.1 (antibody, V domains shown)
VH: B2 VH with N43K, R63K, V69T, P74T
VL: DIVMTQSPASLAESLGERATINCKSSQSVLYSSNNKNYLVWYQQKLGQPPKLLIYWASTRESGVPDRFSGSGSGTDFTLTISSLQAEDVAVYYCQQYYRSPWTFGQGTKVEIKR
B9: anti-MCP-1 mAb 1.14.1 (antibody, V domains shown)
VH: QVQAEQSGPGLVKPSQTLSLTCAISGDSVSSYSAAWNWIRQSPSRGLEWLGRTYYRSKWYSDHAVSVRSRITIYPDTSKNQFSLQLNSVTPEDTAVYYCARDRISGTYVGMDVWGQGTTVTVSS
VL: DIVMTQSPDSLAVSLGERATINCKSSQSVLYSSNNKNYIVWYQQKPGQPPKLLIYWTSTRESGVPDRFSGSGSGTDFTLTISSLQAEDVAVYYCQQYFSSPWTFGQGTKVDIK
B10: anti-MCP-1 mAb 3.2 (antibody, V domains shown)
VH: QVQLVQSGAEVKKPGASVKVSCKVSGYTLSELSMHWVRQAPGKGLEWMGGFDPEDGEIIHAQKFQGRVTMTEDTSTDTAYMELSSLRSEDTAVYYCATGDFWSGYYLDWWGQGTLVTVSS
VL: EIVMMQSPATLSVSPGERATLSCRASQSVNSNLAWYQQKPGQAPRLLINGASTRATGIPARFSGSGSGTEFTLTISSLQSEDFAIYYCQQYNDWPTFTFGGGTKVEINR
notes: also called 3.2 (neat)

The binders below were run against T1, recombinant human MCP-2 (assay: ELISA, coated antigen).
Procedure: (§1) Determining cross-reactivity of anti-MCP-1 antibodies with other chemokines. ELISA plates (Fisher Cat. No. 12-565-136) were coated with 50 μl/well of MCP-1, MCP-2, MCP-3, MCP-4, RANTES, GRO-alpha, MIP-1 alpha, eotaxin, rat MCP-1 and mouse JE (2 μg/ml) in coating buffer (0.1 M carbonate buffer, pH 9.6, NaHCO₃ 8.4 g/L, then incubated at 4° C. overnight. After incubation, the plates were washed with washing buffer (0.05% Tween 20 in PBS) three times. 200 μL/well blocking buffer (0.5% BSA, 0.1% Tween 20, 0.01% Thimerosal in 1×PBS) were added and the plates incubated at room temperature for 1 hour. After incubation, the plates were washed with washing buffer three times. 50 μL/well of hybridoma supernatants, and positive and negative controls (positive control was anti-MCP-1 antibody purchased from R&D Sciences, and negative control was an antibody to Keyhole Limpet Hemocyanin produced at Abgenix) were added and the plates incubated at room temperature for 2 hours. After incubation, the plates were washed three times with washing buffer. […] After incubation, the plates were washed three times with washing buffer and 100 μL/well of TMB (BioFX Lab. Cat. #TMSK-0 100-01) was added and the plates allowed to develop for about 10 minutes.

ELISA OD [OD450] | Binder
0.042 | B1
0.051 | B2
0.046 | B3
0.048 | B4
0.047 | B5
0.041 | B6
0.042 | B7
0.04 | B8
0.042 | B9
0.535 | B10

These binders were tested against T2, human RANTES (assay: ELISA, coated antigen).
Procedure: as §1

ELISA OD [OD450] | Binder
0.046 | B1
0.044 | B2
0.046 | B3
0.045 | B4
0.049 | B5
0.042 | B6
0.046 | B7
0.042 | B8
0.046 | B9
0.043 | B10

The binders below were run against T5, recombinant human MCP-3 (human, UniProt P80098 24-99) (assay: ELISA, coated antigen).
T5 construct: also called rhMCP-3
T5 sequence (P80098 24-99 limits assumed): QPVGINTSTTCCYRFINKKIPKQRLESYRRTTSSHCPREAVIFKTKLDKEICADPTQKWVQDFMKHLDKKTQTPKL
Procedure: as §1

ELISA OD [OD450] | Binder
0.046 | B1
0.064 | B2
0.047 | B3
0.054 | B4
0.069 | B5
0.043 | B6
0.046 | B7
0.047 | B8
0.046 | B9
0.449 | B10

Each binder was assayed against rat MCP-1 (rat, UniProt P14844 24-148) (assay: ELISA, coated antigen).
Sequence of rat MCP-1 (P14844 24-148 limits assumed): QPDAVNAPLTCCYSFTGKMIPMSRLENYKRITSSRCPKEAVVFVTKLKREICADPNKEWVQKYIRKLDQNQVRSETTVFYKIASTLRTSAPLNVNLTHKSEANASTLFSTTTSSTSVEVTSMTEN
Procedure: as §1

ELISA OD [OD450] | Binder
0.062 | B1
0.051 | B2
0.06 | B3
0.049 | B4
0.045 | B5
0.052 | B6
0.062 | B7
0.059 | B8
0.062 | B9
0.07 | B10

These binders were tested against T3, human GRO/MGSA (assay: ELISA, coated antigen).
Procedure: as §1

ELISA OD [OD450] | Binder
0.046 | B1
0.047 | B2
0.046 | B3
0.06 | B4
0.048 | B5
0.042 | B6
0.046 | B7
0.043 | B8
0.046 | B9
0.042 | B10

Each binder was assayed against T6, recombinant human MCP-4 (human, UniProt Q99616 24-98, limits assumed) (assay: ELISA, coated antigen).
T6 construct: also called rhMCP-4
Procedure: as §1

ELISA OD [OD450] | Binder
0.044 | B1
0.052 | B2
0.045 | B3
0.046 | B4
0.05 | B5
0.043 | B6
0.044 | B7
0.052 | B8
0.044 | B9
0.041 | B10

What follows are binders tested against T7, human monocyte chemo-attractant protein-1 (MCP-1) (human, UniProt P13500 24-99) (assay: ELISA, coated antigen).
T7 construct: 76-residue recombinant protein from E. coli, bought (PeproTech); also called hMCP-1(MCAF); human MCP-1
T7 sequence (P13500 24-99): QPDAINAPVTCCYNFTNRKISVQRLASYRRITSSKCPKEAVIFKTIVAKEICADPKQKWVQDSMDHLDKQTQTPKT
Procedure: as §1

ELISA OD [OD450] | Binder
0.375 | B1
0.944 | B2
1.16 | B3
1.16 | B4
1.18 | B5
1.34 | B6
0.933 | B7
1.26 | B8
1.13 | B9
0.235 | B10

What follows are binders tested against T8, human eotaxin (human, UniProt P51671 24-97) (assay: ELISA, coated antigen).
T8 construct: also called hEotaxin
Procedure: as §1

ELISA OD [OD450] | Binder
0.042 | B1
0.042 | B2
0.044 | B3
0.047 | B4
0.043 | B5
0.049 | B6
0.044 | B7
0.05 | B8
0.042 | B9
0.194 | B10

The binders below were run against T9, recombinant mouse JE/MCP-1 (mouse, UniProt P10148 24-148) (assay: ELISA, coated antigen).
T9 construct: also called rmJE/MCP-1
Procedure: as §1

ELISA OD [OD450] | Binder
0.042 | B1
0.045 | B2
0.043 | B3
0.045 | B4
0.043 | B5
0.041 | B6
0.042 | B7
0.041 | B8
0.042 | B9
0.059 | B10

What follows are binders tested against T4, human MIP-1-alpha (assay: ELISA, coated antigen).
Procedure: as §1

ELISA OD [OD450] | Binder
0.046 | B1
0.044 | B2
0.042 | B3
0.045 | B4
0.041 | B5
0.042 | B6
0.046 | B7
0.043 | B8
0.046 | B9
0.041 | B10

What follows are binders tested against T7, human monocyte chemo-attractant … (assay: cell-based or functional assay).

IC50 Ca++ Flux [µg/mL] | IC50 Chemotaxis [µg/mL] | Binder
1 | 12 | B1
0.24 | 0.27 | B2
0.11 | 0.5 | B3
0.26 | 0.88 | B4
0.21 | 0.34 | B5
0.098 | 0.81 | B6
0.13 | 0.35 | B7
0.18 | 1.2 | B8
0.41 | 0.58 | B9

The binders below were run against T7, human monocyte chemo-attractant … (assay: ELISA, hybridoma supernatant on coated MCP-1).
Procedure: Selection of candidate antibodies for ELISA. After 14 days of culture, hybridoma supernatants were screened for MCP-1-specific monoclonal antibodies. The ELISA plates (Fisher, Cat. No. 12-565-136) were coated with 50 μl/well of MCP-1 (2 μg/mL) in Coating Buffer (0.1 M Carbonate Buffer, pH 9.6, NaHCO₃8.4 g/L), then incubated at 4° C. overnight. After incubation, the plates were washed with Washing Buffer (0.05% Tween 20 in PBS) three times. 200 μl/well Blocking Buffer (0.5% BSA, 0.1% Tween 20, 0.01% Thimerosal in 1× PBS) were added and the plates incubated at room temperature for 1 hour. After incubation, the plates were washed with Washing Buffer three times. 50 μL/well of hybridoma supernatants, and positive and negative controls were added and the plates incubated at room temperature for 2 hours.
The positive control used throughout was XMG2 MCP-1 Group 1, footpad N160-7 and the negative control was XMG2 KLH Group 1, footpad L627-6. After incubation, the plates were washed three times with Washing Buffer. […] In the secondary screen, three sets of samples (positives in first screening) were screened, one set for hIgG detection, one set for hKappa detection, and one set for hlambda detection. After incubation, the plates were washed three times with Washing Buffer. 100 μL/well of TMB (BioFX Lab. Cat. #TMSK-0100-01) were added and the plates allowed to develop for about 10 minutes (until negative control wells barely started to show color), then 50 μL/well stop solution (TMB Stop Solution (BioFX Lab. Cat. #STPR-0100-01) were added and the plates read on an ELISA plate reader at wavelength 450 nm. The OD readings from the positive wells are presented in Table 9.

ELISA OD-MCP-1 [OD450] | Binder
3.92 | B1
3.64 | B2
4 | B3
3.47 | B4
0.51 | B5
3.9 | B6
4 | B7
3.85 | B8
2.06 | B9
3.96 | B10
